Source: patent US20210355204A1

Experiments:
TGFβ3 (human) [1] = target: TGFβ3 (human) (UniProt P10600); experiment: cell-based or functional assay
TGFβ1 (human) [2] = target: TGFβ1 (human) (UniProt P01137); experiment: cell-based or functional assay
TGFβ2 (human) [3] = target: TGFβ2 (human) (UniProt P61812); experiment: cell-based or functional assay
TGFβ3 (human) [4] = target: TGFβ3 (human) (UniProt P10600); experiment: SPR (Biacore 2000), TGFβ immobilised on CM1 chip, antibody injected
TGFβ1 (human) [5] = target: TGFβ1 (human) (UniProt P01137); experiment: as above
TGFβ2 (human) [6] = target: TGFβ2 (human) (UniProt P61812); experiment: as above
TGFβ3 (human) [7] = target: TGFβ3 (human) (UniProt P10600); experiment: SPR (Biacore A100), BM-1 captured on anti-mouse Fc CM5 chip, TGFβ injected
TGFβ1 (human) [8] = target: TGFβ1 (human) (UniProt P01137); experiment: as above
TGFβ2 (human) [9] = target: TGFβ2 (human) (UniProt P61812); experiment: as above

Chain of TGFβ3 (human) (P10600 301-412 limits assumed): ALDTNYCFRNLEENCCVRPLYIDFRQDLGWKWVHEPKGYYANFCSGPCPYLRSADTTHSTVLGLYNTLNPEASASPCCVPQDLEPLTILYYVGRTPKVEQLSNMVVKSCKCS
Chain of TGFβ2 (human) (P61812 303-414 limits assumed): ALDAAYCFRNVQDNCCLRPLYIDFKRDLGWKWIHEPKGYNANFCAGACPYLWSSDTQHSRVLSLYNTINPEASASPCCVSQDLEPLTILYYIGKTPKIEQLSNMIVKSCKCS
Chain of TGFβ1 (human) (P01137 279-390 limits assumed): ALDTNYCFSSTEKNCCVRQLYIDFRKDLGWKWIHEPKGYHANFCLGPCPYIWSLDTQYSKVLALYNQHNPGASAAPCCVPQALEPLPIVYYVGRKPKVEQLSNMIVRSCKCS

HT-2 cell neutralization assay, IC50 (TGFβ3 (human) [1]): 196
IL-11 Release Assay - IC50 (A549 cells) (TGFβ3 (human) [1]): 0.012 µg/mL
HT-2 cell neutralization assay, IC50 (TGFβ1 (human) [2]): 220
IL-11 Release Assay - IC50 (A549 cells) (TGFβ1 (human) [2]): 0.292 µg/mL
IL-11 Release Assay - IC50 (A549 cells) (TGFβ2 (human) [3]): 0.498 µg/mL
Kd (TGFβ3 (human) [4]): 0.188 nM
koff (TGFβ3 (human) [4]): 0.000946 s⁻¹
kon (TGFβ3 (human) [4]): 5.05e+06 M⁻¹ s⁻¹
Kd (TGFβ1 (human) [5]): 0.304 nM
koff (TGFβ1 (human) [5]): 0.0039 s⁻¹
kon (TGFβ1 (human) [5]): 1.28e+07 M⁻¹ s⁻¹
Kd (TGFβ2 (human) [6]): 0.977 nM
koff (TGFβ2 (human) [6]): 0.00684 s⁻¹
kon (TGFβ2 (human) [6]): 7e+06 M⁻¹ s⁻¹
Kd (TGFβ3 (human) [7]): 0.048 nM
koff (TGFβ3 (human) [7]): 0.00031 s⁻¹
kon (TGFβ3 (human) [7]): 6.5e+06 M⁻¹ s⁻¹
Kd (TGFβ1 (human) [8]): 0.072 nM
koff (TGFβ1 (human) [8]): 0.0014 s⁻¹
kon (TGFβ1 (human) [8]): 1.9e+07 M⁻¹ s⁻¹
Kd (TGFβ2 (human) [9]): 0.17 nM
koff (TGFβ2 (human) [9]): 0.002 s⁻¹
kon (TGFβ2 (human) [9]): 1.1e+07 M⁻¹ s⁻¹
B1: BM-1 (1D11, R&D Systems MAB1835) (antibody, from another filing, V domains shown)
VH: QVQLQQSGPELVRPGASVKLSCKASGYIFITYWMNWVKQRPGQGLEWIGQIFPASGSTNYNEMFEGKATLTVDTSSSTAYMQLSSLTSEDSAVYYCARGDGNYALDAMDYWGQGTSVTVSS
VL: DIVLTQSPASLAVSLGQRATISCRASESVDSYGNSFMHWYQQKSGQPPKLLIYLASNLESGVPARFSGSGSRTDFTLTIDPVEADDAATYYCQQNNEDPLTFGAGTKLEIK
